US20240000960A1 (CLEVELAND CLINIC FOUNDATION, published 2024)

Biological target: T1, CD6 (as used in surface plasmon resonance) (human, UniProt P30203 18-402, limits assumed)
T1 construct: also called human CD6
T1 sequence (looked up): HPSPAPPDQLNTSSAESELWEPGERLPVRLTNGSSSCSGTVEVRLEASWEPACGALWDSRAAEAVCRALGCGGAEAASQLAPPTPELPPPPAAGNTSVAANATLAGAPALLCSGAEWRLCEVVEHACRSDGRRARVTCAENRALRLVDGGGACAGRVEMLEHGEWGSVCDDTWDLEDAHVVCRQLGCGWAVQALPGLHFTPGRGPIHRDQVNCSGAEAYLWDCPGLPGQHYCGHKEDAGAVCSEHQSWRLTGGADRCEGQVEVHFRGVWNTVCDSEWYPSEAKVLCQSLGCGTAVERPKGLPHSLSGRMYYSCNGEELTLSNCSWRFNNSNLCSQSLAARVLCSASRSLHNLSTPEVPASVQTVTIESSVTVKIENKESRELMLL
Experiment: surface plasmon resonance

B1: mouse anti-human CD6 IgG (UMCD6) (antibody, V domains shown)
VH: QVQLKESGPGLVAPSQSLSITCTVSGFSLSRYSVHWVRQPPGKGLEWLGLIWGGGFTDYNSALKSRLSITKDNSKSQVFLKMNSLQTDDTAMYYCAREGVAYWGQGTLVSVSA
VL: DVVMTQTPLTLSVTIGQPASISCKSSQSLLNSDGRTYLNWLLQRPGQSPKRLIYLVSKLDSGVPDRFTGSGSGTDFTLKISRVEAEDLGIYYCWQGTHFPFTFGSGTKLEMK
notes: Mouse IgG; also called parent anti-CD6 mAb; parental mouse anti-CD6 IgG
Kd: 0.01 nM
